Source: PMC2756588

T1: Abp1, P15891
T1 sequence (P15891 535-592, looked up): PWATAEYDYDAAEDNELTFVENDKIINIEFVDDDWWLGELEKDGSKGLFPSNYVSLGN

T2: Bbc1, P47068
T2 sequence (P47068 1-78, looked up): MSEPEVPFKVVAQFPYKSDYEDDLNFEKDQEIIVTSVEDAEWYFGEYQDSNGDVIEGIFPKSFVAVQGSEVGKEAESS

T3: Boi1, P38041
T3 sequence (P38041 1-86, looked up): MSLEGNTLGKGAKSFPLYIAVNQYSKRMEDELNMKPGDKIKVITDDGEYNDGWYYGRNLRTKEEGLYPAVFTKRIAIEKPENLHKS

T4: Boi2, P39969
T4 sequence (P39969 32-116, looked up): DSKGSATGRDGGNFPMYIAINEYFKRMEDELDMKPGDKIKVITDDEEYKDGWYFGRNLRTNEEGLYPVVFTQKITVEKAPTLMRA

T5: Bud14, P27637
T5 sequence (P27637 247-328, looked up): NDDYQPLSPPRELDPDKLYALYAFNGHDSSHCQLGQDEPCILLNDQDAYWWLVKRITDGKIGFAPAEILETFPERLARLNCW

T6: Bzz1-1, P38822
T6 sequence (P38822 478-572, looked up): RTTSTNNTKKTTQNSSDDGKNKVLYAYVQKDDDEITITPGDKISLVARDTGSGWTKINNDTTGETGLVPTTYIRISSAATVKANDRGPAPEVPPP

T7: Bzz1-2, P38822
T7 sequence (P38822 568-633, looked up): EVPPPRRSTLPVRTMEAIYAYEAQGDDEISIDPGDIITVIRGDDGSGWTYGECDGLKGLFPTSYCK

T8: Cdc25, P04821
T8 sequence (P04821 50-136, looked up): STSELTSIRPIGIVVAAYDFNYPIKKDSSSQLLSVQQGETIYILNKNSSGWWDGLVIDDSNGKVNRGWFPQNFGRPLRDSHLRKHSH

T9: Cyk3, Q07533
T9 sequence (Q07533 1-83, looked up): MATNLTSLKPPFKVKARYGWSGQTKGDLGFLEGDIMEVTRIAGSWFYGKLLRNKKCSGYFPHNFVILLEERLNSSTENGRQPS

T10: Fus1, P11710
T10 sequence (P11710 432-512, looked up): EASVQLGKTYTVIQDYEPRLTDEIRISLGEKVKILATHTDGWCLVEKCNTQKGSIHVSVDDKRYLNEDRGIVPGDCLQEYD

T11: Hof1, Q05080
T11 sequence (Q05080 590-669, looked up): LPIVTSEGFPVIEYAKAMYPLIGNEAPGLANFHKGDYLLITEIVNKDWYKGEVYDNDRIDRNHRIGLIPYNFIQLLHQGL

T12: Hse1, P38753
T12 sequence (P38753 208-285, looked up): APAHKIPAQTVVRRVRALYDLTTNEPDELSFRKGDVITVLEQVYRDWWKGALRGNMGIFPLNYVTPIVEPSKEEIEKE

T13: Lsb1, P53281
T13 sequence (P53281 45-122, looked up): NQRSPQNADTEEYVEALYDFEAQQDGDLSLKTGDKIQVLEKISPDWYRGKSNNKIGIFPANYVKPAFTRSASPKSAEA

T14: Lsb3, P43603
T14 sequence (P43603 385-451, looked up): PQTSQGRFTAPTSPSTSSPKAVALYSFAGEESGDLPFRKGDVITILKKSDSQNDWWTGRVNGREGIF

T15: Lsb4, P32793
T15 sequence (P32793 402-468, looked up): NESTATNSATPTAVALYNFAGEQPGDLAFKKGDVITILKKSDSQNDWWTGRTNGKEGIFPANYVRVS

T16: Myo5, Q04439
T16 sequence (Q04439 1072-1160, looked up): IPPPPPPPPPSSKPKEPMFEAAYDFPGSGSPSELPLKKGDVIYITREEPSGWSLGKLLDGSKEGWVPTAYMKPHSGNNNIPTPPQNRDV

T17: Nbp2, Q12163
T17 sequence (Q12163 103-180, looked up): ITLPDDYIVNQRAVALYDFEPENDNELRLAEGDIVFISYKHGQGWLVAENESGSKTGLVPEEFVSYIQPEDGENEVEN

T18: Pex13, P80667
T18 sequence (P80667 295-386, looked up): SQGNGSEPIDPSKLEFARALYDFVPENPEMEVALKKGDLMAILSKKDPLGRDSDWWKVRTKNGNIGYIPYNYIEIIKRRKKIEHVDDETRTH

T19: Pin3, Q06449
T19 sequence (Q06449 53-122, looked up): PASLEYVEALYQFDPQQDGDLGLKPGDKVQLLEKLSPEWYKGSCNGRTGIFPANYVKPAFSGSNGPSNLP

T20: Sla1-2, P32790
T20 sequence (P32790 60-140, looked up): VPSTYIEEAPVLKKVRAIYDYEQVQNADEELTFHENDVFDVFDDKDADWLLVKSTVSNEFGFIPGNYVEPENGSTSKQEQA

T21: Sla1-3, P32790
T21 sequence (P32790 344-424, looked up): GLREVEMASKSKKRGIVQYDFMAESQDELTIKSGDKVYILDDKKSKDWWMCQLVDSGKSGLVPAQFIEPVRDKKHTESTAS


Biological target: T1, Abp1, P15891
Experiment: SPOT array
Conditions: median of control spots 935

Binder	SPOT intensity
PIVPSSPAPPLPLSG	0
ISPPASPPPEFDFSK	0
VPPVPLPFGIPPFPM	25
QPPLPSSAPPIPTSH	0

Biological target: T2, Bbc1, P47068
Experiment: SPOT array
Conditions: median of control spots 796

Binder	SPOT intensity
PIVPSSPAPPLPLSG	0
ISPPASPPPEFDFSK	0
VPPVPLPFGIPPFPM	3
QPPLPSSAPPIPTSH	0

Biological target: Bem1-1, P29366
Sequence (P29366 55-141): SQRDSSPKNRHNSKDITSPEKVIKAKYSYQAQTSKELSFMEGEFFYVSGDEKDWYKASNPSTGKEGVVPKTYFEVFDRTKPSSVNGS
Experiment: SPOT array
Conditions: median of control spots 4282

Binder	SPOT intensity
PIVPSSPAPPLPLSG	0
ISPPASPPPEFDFSK	0
VPPVPLPFGIPPFPM	0
QPPLPSSAPPIPTSH	0

Biological target: Bem1-2, P29366
Sequence (P29366 139-227): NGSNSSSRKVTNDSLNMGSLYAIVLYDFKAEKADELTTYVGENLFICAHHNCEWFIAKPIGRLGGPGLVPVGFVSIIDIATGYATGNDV
Experiment: SPOT array
Conditions: median of control spots 4347

Binder	SPOT intensity
PIVPSSPAPPLPLSG	0
ISPPASPPPEFDFSK	0
VPPVPLPFGIPPFPM	2
QPPLPSSAPPIPTSH	1

Biological target: T3, Boi1, P38041
Experiment: SPOT array
Conditions: median of control spots 1162

Binder	SPOT intensity
PIVPSSPAPPLPLSG	0
ISPPASPPPEFDFSK	0
VPPVPLPFGIPPFPM	0
QPPLPSSAPPIPTSH	0

Biological target: T4, Boi2, P39969
Experiment: SPOT array
Conditions: median of control spots 1161

Binder	SPOT intensity
PIVPSSPAPPLPLSG	0
ISPPASPPPEFDFSK	0
VPPVPLPFGIPPFPM	1
QPPLPSSAPPIPTSH	0

Biological target: T5, Bud14, P27637
Experiment: SPOT array
Conditions: median of control spots 956

Binder	SPOT intensity
PIVPSSPAPPLPLSG	0
ISPPASPPPEFDFSK	0
VPPVPLPFGIPPFPM	2
QPPLPSSAPPIPTSH	0

Biological target: T6, Bzz1-1, P38822
Experiment: SPOT array
Conditions: median of control spots 4446

Binder	SPOT intensity
PIVPSSPAPPLPLSG	1
ISPPASPPPEFDFSK	0
VPPVPLPFGIPPFPM	2
QPPLPSSAPPIPTSH	0

Biological target: T7, Bzz1-2, P38822
Experiment: SPOT array
Conditions: median of control spots 4538

Binder	SPOT intensity
PIVPSSPAPPLPLSG	0
ISPPASPPPEFDFSK	0
VPPVPLPFGIPPFPM	0
QPPLPSSAPPIPTSH	0

Biological target: T8, Cdc25, P04821
Experiment: SPOT array
Conditions: median of control spots 969

Binder	SPOT intensity
PIVPSSPAPPLPLSG	0
ISPPASPPPEFDFSK	0
VPPVPLPFGIPPFPM	8
QPPLPSSAPPIPTSH	0

Biological target: T9, Cyk3, Q07533
Experiment: SPOT array
Conditions: median of control spots 1451

Binder	SPOT intensity
PIVPSSPAPPLPLSG	0
ISPPASPPPEFDFSK	1
VPPVPLPFGIPPFPM	2
QPPLPSSAPPIPTSH	0

Biological target: T10, Fus1, P11710
Experiment: SPOT array
Conditions: median of control spots 1200

Binder	SPOT intensity
PIVPSSPAPPLPLSG	1
ISPPASPPPEFDFSK	0
VPPVPLPFGIPPFPM	0
QPPLPSSAPPIPTSH	0

Biological target: GST
Experiment: SPOT array
Conditions: median of control spots 978

Binder	SPOT intensity
PIVPSSPAPPLPLSG	0
ISPPASPPPEFDFSK	0
VPPVPLPFGIPPFPM	0
QPPLPSSAPPIPTSH	0

Biological target: T11, Hof1, Q05080
Experiment: SPOT array
Conditions: median of control spots 4086

Binder	SPOT intensity
PIVPSSPAPPLPLSG	0
ISPPASPPPEFDFSK	0
VPPVPLPFGIPPFPM	84
QPPLPSSAPPIPTSH	0

Biological target: T12, Hse1, P38753
Experiment: SPOT array
Conditions: median of control spots 1727

Binder	SPOT intensity
PIVPSSPAPPLPLSG	0
ISPPASPPPEFDFSK	0
VPPVPLPFGIPPFPM	0
QPPLPSSAPPIPTSH	0

Biological target: T13, Lsb1, P53281
Experiment: SPOT array
Conditions: median of control spots 388

Binder	SPOT intensity
PIVPSSPAPPLPLSG	0
ISPPASPPPEFDFSK	0
VPPVPLPFGIPPFPM	6
QPPLPSSAPPIPTSH	0

Biological target: T14, Lsb3, P43603
Experiment: SPOT array
Conditions: median of control spots 406

Binder	SPOT intensity
PIVPSSPAPPLPLSG	0
ISPPASPPPEFDFSK	0
VPPVPLPFGIPPFPM	4
QPPLPSSAPPIPTSH	0

Biological target: T15, Lsb4, P32793
Experiment: SPOT array
Conditions: median of control spots 397

Binder	SPOT intensity
PIVPSSPAPPLPLSG	0
ISPPASPPPEFDFSK	0
VPPVPLPFGIPPFPM	16
QPPLPSSAPPIPTSH	0

Biological target: Myo3, P36006
Experiment: SPOT array
Conditions: median of control spots 468

Binder	SPOT intensity
PIVPSSPAPPLPLSG	399
ISPPASPPPEFDFSK	233
VPPVPLPFGIPPFPM	341
QPPLPSSAPPIPTSH	334

Biological target: T16, Myo5, Q04439
Experiment: SPOT array
Conditions: median of control spots 471

Binder	SPOT intensity
PIVPSSPAPPLPLSG	434
ISPPASPPPEFDFSK	91
VPPVPLPFGIPPFPM	207
QPPLPSSAPPIPTSH	242

Biological target: T17, Nbp2, Q12163
Experiment: SPOT array
Conditions: median of control spots 357

Binder	SPOT intensity
PIVPSSPAPPLPLSG	0
ISPPASPPPEFDFSK	0
VPPVPLPFGIPPFPM	1
QPPLPSSAPPIPTSH	0

Biological target: T18, Pex13, P80667
Experiment: SPOT array
Conditions: median of control spots 1341

Binder	SPOT intensity
PIVPSSPAPPLPLSG	0
ISPPASPPPEFDFSK	0
VPPVPLPFGIPPFPM	129
QPPLPSSAPPIPTSH	0

Biological target: T19, Pin3, Q06449
Experiment: SPOT array
Conditions: median of control spots 2171

Binder	SPOT intensity
PIVPSSPAPPLPLSG	0
ISPPASPPPEFDFSK	0
VPPVPLPFGIPPFPM	63
QPPLPSSAPPIPTSH	0

Biological target: Rvs167, P39743
Sequence (P39743 419-482): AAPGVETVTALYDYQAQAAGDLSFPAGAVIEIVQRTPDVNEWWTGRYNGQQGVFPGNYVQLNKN
Experiment: SPOT array
Conditions: median of control spots 2707

Binder	SPOT intensity
PIVPSSPAPPLPLSG	0
ISPPASPPPEFDFSK	0
VPPVPLPFGIPPFPM	0
QPPLPSSAPPIPTSH	0

Biological target: Sho1, P40073
Sequence (P40073 287-367): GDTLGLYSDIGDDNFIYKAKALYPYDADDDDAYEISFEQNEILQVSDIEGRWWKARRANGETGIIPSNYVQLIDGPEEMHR
Experiment: SPOT array
Conditions: median of control spots 1148

Binder	SPOT intensity
PIVPSSPAPPLPLSG	0
ISPPASPPPEFDFSK	0
VPPVPLPFGIPPFPM	6
QPPLPSSAPPIPTSH	0

Biological target: T20, Sla1-2, P32790
Experiment: SPOT array
Conditions: median of control spots 712

Binder	SPOT intensity
PIVPSSPAPPLPLSG	0
ISPPASPPPEFDFSK	0
VPPVPLPFGIPPFPM	1
QPPLPSSAPPIPTSH	0

Biological target: T21, Sla1-3, P32790
Experiment: SPOT array
Conditions: median of control spots 5475

Binder	SPOT intensity
PIVPSSPAPPLPLSG	0
ISPPASPPPEFDFSK	0
VPPVPLPFGIPPFPM	0
QPPLPSSAPPIPTSH	0
